Publication PMC6292858

Molecular target: DREP2 CIDE domain (amino acids 1–84), wild-type (Drosophila melanogaster)
Test: SEC-MALS; self-association; Superdex 200 HR 10/30 coupled to three-angle light scattering and refractive index detectors, 0.2 mL/min; wild type measured in 50 mM NaCl and in 1 M NaCl

stoichiometry N: 16 to 18 molecules
Substance: DREP2 CIDE domain (amino acids 1–84), wild-type (domain or fragment)
